Data taken from PMC2978023.

Assays:
[1] = biological target: recombinant purified integrin αMβ2 (UniProt P11215); assay: ELISA
[2] = biological target: recombinant purified αM integrin subunit (UniProt P11215); assay: ELISA
[3] = biological target: recombinant purified β2 integrin subunit (UniProt P05107); assay: ELISA
[4] = biological target: αM/αLβ2 chimera (UniProt P05107); assay: flow cytometry on cells
[5] = biological target: integrin αMβ2 on human PMNs (human (endogenous in PMNs)) (UniProt P11215)
[6] = biological target: wild-type αMβ2 on transfected K562 cells (UniProt P11215); assay: flow cytometry on cells
[7] = biological target: αM(1119Δ)β2 (UniProt P11215); assay: flow cytometry on cells
[8] = biological target: αMβ2(728Δ) (UniProt P11215); assay: flow cytometry on cells

Ang(1–4), angiostatin composed of four kringle domains of Plg, sequence (P00747 20-810): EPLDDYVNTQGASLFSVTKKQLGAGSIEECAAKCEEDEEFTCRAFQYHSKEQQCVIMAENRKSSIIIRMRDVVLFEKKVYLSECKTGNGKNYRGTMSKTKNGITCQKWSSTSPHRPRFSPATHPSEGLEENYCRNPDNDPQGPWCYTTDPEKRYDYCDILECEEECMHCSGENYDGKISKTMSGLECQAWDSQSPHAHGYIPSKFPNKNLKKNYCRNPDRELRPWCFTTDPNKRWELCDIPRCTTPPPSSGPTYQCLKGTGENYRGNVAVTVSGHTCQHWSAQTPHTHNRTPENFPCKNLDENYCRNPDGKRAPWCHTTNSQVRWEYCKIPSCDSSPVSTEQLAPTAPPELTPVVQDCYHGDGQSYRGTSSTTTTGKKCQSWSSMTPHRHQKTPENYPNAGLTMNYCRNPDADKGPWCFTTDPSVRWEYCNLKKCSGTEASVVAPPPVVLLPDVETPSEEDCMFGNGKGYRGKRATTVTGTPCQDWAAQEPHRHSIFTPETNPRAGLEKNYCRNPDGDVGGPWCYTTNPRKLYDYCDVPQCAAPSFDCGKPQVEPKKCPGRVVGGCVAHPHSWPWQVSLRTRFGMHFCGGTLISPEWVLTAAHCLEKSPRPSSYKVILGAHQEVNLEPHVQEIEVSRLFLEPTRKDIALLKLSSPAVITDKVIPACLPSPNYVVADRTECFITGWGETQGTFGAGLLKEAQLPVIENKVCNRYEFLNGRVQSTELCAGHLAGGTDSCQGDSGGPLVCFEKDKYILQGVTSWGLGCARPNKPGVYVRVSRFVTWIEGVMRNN

Kd [1] [nM] | Kd [2] [nM] | Kd [3] [nM] | MFI of bound ligand [4] [MFI] | PMN early/late apoptosis (% annexin V+ cells), 16 h, Plg 1 μM with NIF (50 nM) [5] [%] | MFI of bound ligand [6] [MFI] | MFI of bound ligand [7] [MFI] | MFI of bound ligand [8] [MFI] | Substance
500 | 400 | > 100000 |  |  |  |  |  | Ang(1–4), angiostatin composed of four kringle domains of Plg (from UniProt P00747 20-810) (domain or fragment)
 |  |  | 129 |  |  |  |  | human fibrinogen (from UniProt P02671-2 20-644; P02675 31-491; P02679-2 27-437) (complex)
 | 100 | 500 | 135 | 90 | 130 | 145 | 152 | plasminogen (Glutamic Plg) (ligand)
